Source: US20200115452A1 (Dana-Farber, published 2020)
Where no end group is shown, it is not given here.

T1: unphosphorylated peptide (unphosphorylated form of the PD-1 p248Tyr peptide) (human, not fully specified)
T1 peptide: VPEQTEYATIVF

T2: PD-1 pITIM peptide KEDPSAVPVFSVD(pY)GELDFQWRE (phosphotyrosine (pY) at peptide residue 14 (PD-1 ITIM tyrosine))
T2 construct: Coated on ELISA plates at 1 µg/ml; also called negative control pITIM peptide
T2 peptide: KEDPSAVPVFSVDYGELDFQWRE


Columns and labels:
[1] = target: T1, unphosphorylated peptide …; experiment: ELISA, hybridoma screen
Text: (§1) Hybridoma wells were screened by western blot on pervanadate treated Jurkat-hPD-1 lysates and by ELISA on PD-1 p248Tyr peptide conjugated to BSA and lack of reactivity to unphosphorylated peptide or BSA.

BSA = target: T3, BSA (UniProt P02769 25-607); experiment: ELISA, hybridoma screen
T3 construct: Carrier control in the hybridoma ELISA screen; also called carrier
Text: as §1

[2] = target: T2, PD-1 pITIM peptide …; experiment: peptide ELISA with antibody supernatants

T3 sequence (P02769 25-607 limits assumed): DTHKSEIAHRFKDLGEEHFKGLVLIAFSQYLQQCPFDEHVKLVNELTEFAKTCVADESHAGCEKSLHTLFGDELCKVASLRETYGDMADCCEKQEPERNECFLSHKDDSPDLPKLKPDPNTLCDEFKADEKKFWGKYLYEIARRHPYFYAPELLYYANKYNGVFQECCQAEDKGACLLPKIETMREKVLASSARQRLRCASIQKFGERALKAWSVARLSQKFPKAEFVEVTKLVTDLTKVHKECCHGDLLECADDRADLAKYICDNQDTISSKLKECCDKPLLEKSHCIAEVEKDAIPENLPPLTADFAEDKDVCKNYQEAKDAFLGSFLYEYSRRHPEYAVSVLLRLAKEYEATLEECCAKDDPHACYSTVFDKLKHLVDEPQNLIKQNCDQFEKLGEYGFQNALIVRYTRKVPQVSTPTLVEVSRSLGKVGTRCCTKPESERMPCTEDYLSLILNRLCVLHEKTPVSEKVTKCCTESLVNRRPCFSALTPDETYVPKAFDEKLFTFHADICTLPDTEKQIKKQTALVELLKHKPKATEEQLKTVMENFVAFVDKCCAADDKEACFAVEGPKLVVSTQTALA

binding result [1]	binding result (BSA)	binding result [2]	Binder
no binding	no binding		anti-phosphorylated PD-1 monoclonal antibody 407.6G12 (antibody, mouse IgG2a, V domains shown, Mouse IgG2a, kappa; A BV421-conjugated version was used for flow cytometry; also called clone 407.6G12; 307.6G12) VH: EVQLVESGGGLVQPKGSLKLSCAASGFTFNTYAMNWVRQAPGKGLEWVARIRSKSDNYATYYADSVKDRFTISRDDSQSMLYLQMNNLKTEDTAMYYCMRGITTVNVWGAGTTVTVSS VL: DIVMTQSQKFMSTSVGDRVSVTCKASQNVGTNVAWYQQKPGQSPKALIYSASYRYSGVPDRFTGSGSGTDFTLTISNVHSEDLAEYFCQQYNFYPLTFGAGTKLELK
		no binding	rabbit mAb 2H2/2K4 (antibody, V domains shown, Rabbit monoclonal tested as culture supernatant, detected with anti-rabbit IgG Fc) VH: QSLEESGGDLVKPGASLTLTCKASGFSFSGSYHMCWVRQAPGKGLEWIAHIYVGSSGGTYYASWAKGRFAISKTSSTTVTLQMTSLTAADTATYFCARRDTGGTSAYALWGQGTLVTVSS VL: DVVMTQTPSSASEPVGGTVTIKCQASQSVSSRLAWYQQKPGQPPKLLIYKASTLASGVPSRFKGSGYGTEFTLTISDLECADAATYYCQCTYIDSTYGNNFGGGTEVVVK
		no binding	rabbit mAb 6H2/6K2 (antibody, V domains shown, Rabbit monoclonal tested as culture supernatant) VH: CQSVEESGGRLVTPGTPLTLTCTVSGIDLNYYAMGWVRQAPGKGLEYIGWIKSSGSAYYARWVNGRFTISKTSSTTVDLKMTSPTTEDTATYFCARDGHNIIEYYDLWGQGTLVTVSS VL: AIKMTQTPSSAEAAVGGTITINCQASQSISSSLAWYQQKPGQPPKLLIYKASTLASGVPSRFSGSRSGTQFTLTISGVQCDDAATYYCQQGWSGDNVDNIFGGGTEVVVK
